{"source": "paper PMC4698670", "key": {"[1]": {"molecular_target": "T1, recombinant human PRX1 (Sigma-Aldrich) (human) (UniProt Q06830)", "T1 sequence": "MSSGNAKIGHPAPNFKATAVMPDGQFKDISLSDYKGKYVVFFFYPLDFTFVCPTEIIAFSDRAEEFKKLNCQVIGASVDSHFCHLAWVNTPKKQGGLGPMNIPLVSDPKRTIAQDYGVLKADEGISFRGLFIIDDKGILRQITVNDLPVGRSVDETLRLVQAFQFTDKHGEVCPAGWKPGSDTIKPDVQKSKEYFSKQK"}, "[2]": {"molecular_target": "T1, recombinant human PRX1 (Sigma-Aldrich) (human)", "remark": "listed apart in the source"}}, "data": [{"binder": "recombinant fortilin_(ΔL7R) tagged with Strep-tag (natural protein) MIIYRDRISHDEMFSDIYKIREIADGLCLEVEGKMVSRTEGNIDDSLIGGNASAEGPEGEGTESTVITGVDIVMNHHLQETSFTKEAYKKYIKDYMKSIKGKLEEQRPERVKPFMTGAAEQIKHILANFKNYQFFIGENMNPDGMVALLDYREDGVTPYMIFFKDGLEMEKC", "values": [{"measurement": "PRX1 peroxidase activity in vitro (NADPH consumption rate, reaction mix normalized to 1.00; PRX1 alone 4.38) with fortilin (ΔL7R) added", "setting": "[1]", "result": 5.9, "unit": "A.U."}, {"measurement": "decrease of PRX1 enzymatic activity (NADPH consumption rate) by Mst1 in the presence of fortilin (ΔL7R) (PRX1 alone: 75.3% decrease)", "setting": "[2]", "result": 77.9, "unit": "% decrease"}]}]}
